This is an account of results in paper PMC10786891, “Massively parallel profiling of RNA-targeting CRISPR-Cas13d”.

Changes are numbered by the printed parent chain.

The labels stand for the following.
T1: EsCas13d, nuclease-dead (Eubacterium siraeum, UniProt B0MS50, R295A;H300A;R849A;H854A)
T1 sequence: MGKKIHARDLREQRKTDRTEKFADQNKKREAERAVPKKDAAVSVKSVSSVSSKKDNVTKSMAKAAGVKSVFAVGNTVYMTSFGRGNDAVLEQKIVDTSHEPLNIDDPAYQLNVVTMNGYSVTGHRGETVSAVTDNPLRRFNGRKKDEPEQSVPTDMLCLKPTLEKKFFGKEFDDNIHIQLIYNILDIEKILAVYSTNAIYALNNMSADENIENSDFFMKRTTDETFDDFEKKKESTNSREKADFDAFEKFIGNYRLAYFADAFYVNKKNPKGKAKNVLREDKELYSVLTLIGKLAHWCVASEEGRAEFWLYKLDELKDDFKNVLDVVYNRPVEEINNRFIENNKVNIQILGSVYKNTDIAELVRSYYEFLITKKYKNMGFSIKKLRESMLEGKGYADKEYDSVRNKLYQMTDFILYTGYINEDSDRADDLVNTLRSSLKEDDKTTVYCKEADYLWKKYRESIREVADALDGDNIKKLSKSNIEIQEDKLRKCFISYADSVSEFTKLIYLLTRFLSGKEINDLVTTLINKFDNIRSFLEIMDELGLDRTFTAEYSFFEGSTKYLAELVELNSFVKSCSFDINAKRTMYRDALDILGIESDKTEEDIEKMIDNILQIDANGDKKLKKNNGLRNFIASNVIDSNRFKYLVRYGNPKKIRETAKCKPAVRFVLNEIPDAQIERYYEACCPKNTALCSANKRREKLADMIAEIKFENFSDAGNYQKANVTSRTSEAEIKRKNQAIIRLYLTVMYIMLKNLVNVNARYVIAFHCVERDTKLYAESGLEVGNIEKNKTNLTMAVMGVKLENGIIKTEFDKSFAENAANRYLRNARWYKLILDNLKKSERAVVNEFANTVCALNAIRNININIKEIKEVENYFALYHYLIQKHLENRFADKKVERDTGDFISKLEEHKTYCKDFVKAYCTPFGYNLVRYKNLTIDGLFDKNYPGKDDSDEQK

B1: target 1 insC 3' of 15,insA 3' of 15 (mixed)
RNA 1: CACCCGUGCAAAAAUGCAGGGGUCUAAAACUGAGCGGAUAACCUCUCUAUGG
RNA 2: GGGAAUGGAUCCACAUCUACGAAUUCGUACCAUAGAGCAAGGUUAUCCGCUCACCGAGAUCGGAAGAGCACACGU
B2: target 1 insG 3' of 7,insA 3' of 3 (mixed)
RNA 1: B1 RNA 1
RNA 2: GGGAAUGGAUCCACAUCUACGAAUUCGUACCAUAGAGAGGUUAUCGCGCUACACCGAGAUCGGAAGAGCACACGU
B3: target 2 MT 5'PFS AAU 3'PFS ACG (mixed)
RNA 1: CACCCGUGCAAAAUUGCAGGGGUCUAAAACCUUCUCCAAAUUGUUUCAUCCU
RNA 2: GGGAAUGGAUCCACAUCUACGAAUUCAAUAGGAUGAAACAAUUUGGAGAAGACGAGAUCGGAAGAGCACACGU
B4: target 2 MT 5'PFS ACC 3'PFS ACC (mixed)
RNA 1: B3 RNA 1
RNA 2: B3 RNA 2 with A28C, U29C, G54C
B5: target 2 MT 5'PFS GGC 3'PFS CGU (mixed)
RNA 1: B3 RNA 1
RNA 2: B3 RNA 2 with A27G, A28G, U29C, A52C, C53G, G54U
B6: target 2 MT 5'PFS AGG 3'PFS AGA (mixed)
RNA 1: B3 RNA 1
RNA 2: B3 RNA 2 with A28G, U29G, C53G, G54A
B7: target 2 MT 5'PFS AAA 3'PFS UCU (mixed)
RNA 1: B3 RNA 1
RNA 2: B3 RNA 2 with U29A, A52U, G54U
B8: target 2 MT 5'PFS UCU 3'PFS UUC (mixed)
RNA 1: B3 RNA 1
RNA 2: B3 RNA 2 with A27U, A28C, A52U, C53U, G54C
B9: target 2 MT 5'PFS ACC 3'PFS ACG (mixed)
RNA 1: B3 RNA 1
RNA 2: B3 RNA 2 with A28C, U29C
B10: target 2 MT 5'PFS ACA 3'PFS AAC (mixed)
RNA 1: B3 RNA 1
RNA 2: B3 RNA 2 with A28C, U29A, C53A, G54C
B11: target 2 MT 5'PFS UCU 3'PFS UUA (mixed)
RNA 1: B3 RNA 1
RNA 2: B3 RNA 2 with A27U, A28C, A52U, C53U, G54A
B12: target 2 MT 5'PFS ACC 3'PFS ACU (mixed)
RNA 1: B3 RNA 1
RNA 2: B3 RNA 2 with A28C, U29C, G54U
B13: target 2 MT 5'PFS AUA 3'PFS UGU (mixed)
RNA 1: B3 RNA 1
RNA 2: B3 RNA 2 with A28U, U29A, A52U, C53G, G54U
B14: target 2 MT 5'PFS AGU 3'PFS UAC (mixed)
RNA 1: B3 RNA 1
RNA 2: B3 RNA 2 with A28G, A52U, C53A, G54C
B15: target 2 MT 5'PFS UAU 3'PFS UUU (mixed)
RNA 1: B3 RNA 1
RNA 2: B3 RNA 2 with A27U, A52U, C53U, G54U
B16: target 2 MT 5'PFS AGG 3'PFS AGC (mixed)
RNA 1: B3 RNA 1
RNA 2: B3 RNA 2 with A28G, U29G, C53G, G54C

The series deals with T1, EsCas13d, nuclease-dead. The series is described as follows: crRNA (strand 1, pre-loaded); Mg2+; 40 mM Tris-HCl pH 7.5, 150 mM NaCl, 6 mM MgCl2, 1 mM DTT, 0.1% Tween-20, 0.2 mg/ml BSA; 25 C; 10 min per concentration, then washed. Particulars: tags: His6-TwinStrep-SUMO cleaved; N-terminal SNAP kept (SNAP-Surface 488); label: 3' end held by stalled T7 RNA polymerase.
For B1, binding was put at a Kd of 8.8 ± 0.6 nM.

On to B2, for which the Kd – broadly, the free concentration of one partner at which half of the binding sites on the other are occupied at equilibrium, for simple one-to-one binding – was 5.85 ± 0.29 nM.

Regarding B3, the Kd stood at 5.5 ± 0.6 nM.

B4: the Kd stood at 10.2 ± 3.1 nM.

Turning to B5, binding was put at a Kd of 18 ± 2.4 nM.

Consider B6, for which the Kd came to 3.4 ± 0.4 nM. Against the preceding molecule, the Kd is about 5.3-fold lower.

B7: the Kd is 15 ± 5 nM.

In turn, B8 returned a Kd of 18 ± 4 nM.

Take B9: the Kd is 4.3 ± 0.9 nM.

For B10, binding was characterised by a dissociation constant (Kd) of 4 ± 1.3 nM.

For B11, the Kd was determined as 15.6 ± 3 nM. This Kd lies about 3.9-fold higher than the previous one.

Regarding B12, the Kd came to 7.1 ± 3.2 nM.

The molecule B13 came in with a Kd of 13.3 ± 2 nM.

In turn, B14 had a Kd of 15.1 ± 3.3 nM.

The molecule B15 yielded a Kd of 48 ± 11 nM. Compared with the last molecule, the Kd is about 3.2-fold higher.

As for B16, the Kd is 4.8 ± 0.5 nM.
